The results in this text go back to patent US20180320138.

Series [1] has as its system PKLR TALEN left subunit (synthetic construct (Xanthomonas TALE-FokI)?). Put plainly: cell_activity. The following applies: PKD2iPSC, with right subunit; 31% in PKD3iPSC; cleavage also seen by Surveyor assay.
Series [2] deals with PKLR TALEN right subunit (synthetic construct (Xanthomonas TALE-FokI)?). Put plainly: cell_activity. As to conditions: PKD2iPSC, with left subunit; 31% in PKD3iPSC; cleavage also seen by Surveyor assay.

As to “TGATCGAGCCACTGTACTCCAGCCTAGGTGACAGACGAGACCCTAGAGA (double strand) [PKLR intron 2 TALEN target, left half-site]”, in series [1], the TALEN cleavage efficiency amounted to 40%.

Turning to “TGATCGAGCCACTGTACTCCAGCCTAGGTGACAGACGAGACCCTAGAGA (double strand) [PKLR intron 2 TALEN target, right half-site]”, in series [2], the TALEN cleavage efficiency came to 40%.
